Test results taken from paper PMC6614557 (Nature medicine, 2018).
Values belong to the molecule of their own block, whether it stands above or below them.

Legend:
[1] = target: T1, ONECUT2 (OC2), OC2-HOX domain (Homo sapiens, UniProt O95948); assay: SPR, His-tagged OC2-HOX immobilized, […] model fit; type: binding
T1 sequence (O95948 330-485): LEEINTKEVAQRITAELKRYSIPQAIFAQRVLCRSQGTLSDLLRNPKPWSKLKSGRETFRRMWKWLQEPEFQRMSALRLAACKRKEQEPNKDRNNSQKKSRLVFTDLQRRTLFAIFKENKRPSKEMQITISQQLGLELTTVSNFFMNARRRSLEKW

[2] = target: T2, OC2-HOX (ONECUT2 homeodomain construct) (Homo sapiens, UniProt O95948 330-485); assay: SPR
T2 sequence: T1 sequence (O95948 330-485)

[3] = target: the molecule itself; assay: SEC

Kd [1]: 7.43 µM
Molecule: NC(CO)C(=O)N/N=C/c1ccc(O)c(O)c1O (racemic) [CSRM617, 1-{(E)-[(2,3,4-Trihydroxyphenyl)methylidene]hydrazino}−2-amino-3-hydroxy-1-propanone]

B1: PEG10 promoter OC2 motif probe (dsDNA)
DNA 1: TAGATCGATTTGCA
DNA 2: TGCAAATCGATCTA
Kd [2]: ~0.001 µM

B2: Recombinant OC2-HOX domain (L330-W485) of OC2 (domain or fragment, human, UniProt O95948 330-485, looked up)
chain: T1 sequence (O95948 330-485)
stoichiometry N [3]: 2
